Data reported in the DeepSol protein solubility set.

Test: soluble on expression in E. coli; label from the status in PepcDB or PDB records

**Q.** For “MANQKQVLDVQVSKGITTAQSNEHLRDRSEKAEKYAMSKGNYDPTRKRLNFEIAPGGKIHPIDTSRSIPKRMADILSHRGIKDPNEGLLEPKYRTVVNIIFGGSRQRMQELAFGTQQVDFEKGADNTRIERKRDIERWAKDVYSFVCGRYGEQNIAAFIVHLDELNPHIHCTLLPIKDSRFAYKEIFAGKDKFEYSARMKQLHTDFFAEVNTKWGMSRGTSISETGARHRTTEEYRRMLSEECTTIEDNIKLHQQVLGELQSDIRLAERRVKGLTTMVSNLEKQKTEKETLLSAAEYNLKENKGNAAELAIQIQMLEKELQGIIRQLADKQEKLQTADRQLIELKKDMGAIEERTEELKEEAYQYSRDVHSKVDSLFKDVLLESVISEYRNASAQMNVSERQLFDGSLVQSIAERGTEIMHCATMLFLGMVDDATTFAESHGGGGGGSDLKWGRDEDEDNRAWALRCMRMASRMMRSTIGKKSKRLEHHHHHH”, which “soluble on expression in E. coli” value is on record?
**A.** not soluble

**Q.** With “MGSDKIHHHHHHMWIRTHYFMAKSIHSYIKEKYKVSLQLDQLQYGSIKPDLLPKYWEGSHYYESCSGTWLAEVAQLLGEQKKRSIRNFSDKLGVILHFTADFFCSAHNLPNLRENMWEHLLYELKLDVAFRHFESFRGIQCLNYDDPYDLLTCCRQDYLSGQPSLERDIHYIYAASLSITDLLVTQALLPVAKPLMLLKDLPESS” as the sequence, how does the “soluble on expression in E. coli” value read?
**A.** not soluble

**Q.** Which “soluble on expression in E. coli” value does the source give for “MPADRYATGNGFTGIIRTRHQTFKRHRSAHRRNGQNPIGLPARSRWQPAGNQQLLIFRRLMQNKKQPAQAVFLAASLTPTAAPSSLPVGKR” here?
**A.** not soluble

**Q.** Which “soluble on expression in E. coli” value does the source give for “MKTQHVVVVGAGMGGLAAAIDLASRGLRVTVLERSPSPGGKMREIAVGGARLDAGPTVFTMRWVFEELFADAGASLGESLRLRAAEVLARHTWGDGAPFDLFADAARSTEAVGELAGAAEAKRFVAFCARARGIWQALEGPFIRGQRPSPGELVRRSGLSGLSGLARISPFTLLWKALGEHFHDPRLRQLFGRYATYCGSSPFLAPATLMLVAHVEQQGVWMVDGGMHQIARAMADLATAKGATFRYSTTAESVLVENGKVGGLILQGGERLAADIVLINGDAAALAARCFGPQVAAAVPPVPPTARSLSAVTWGLLAEAEGFPLLRHSVFFGNDYPGEFRDIFTHGRLPSSPTVYVCAQDRGDKAPTVGPSGPRPERLLVLVNAPARGDLSFPDAMELDTCTARTFAFLERCGLTLRRTPEATRVTTPADFNSLFPATGGALYGRASHGWSATFDRPGAKTAMPGLYLAGGSVHPGPGVPMAALSGRLAAQAVLADLTSRGRLEHHHHHH” here?
**A.** not soluble

**Q.** Which “soluble on expression in E. coli” value does the source give for “MAQTPAFNKPKVELHVHLDGAIKPETILYFGKKRGIALPADTVEELRNIIGMDKPLSLPGFLAKFDYYMPVIAGCREAIKRIAYEFVEMKAKEGVVYVEVRYSPHLLANSKVDPMPWNQTEGDVTPDDVVDLVNQGLQEGEQAFGIKVRSILCCMRHQPSWSLEVLELCKKYNQKTVVAMDLAGDETIEGSSLFPGHVEAYEGAVKNGIHRTVHAGEVGSPEVVREAVDILKTERVGHGYHTIEDEALYNRLLKENMHFEVCPWSSYLTGAWDPKTTHAVVRFKNDKANYSLNTDDPLIFKSTLDTDYQMTKKDMGFTEEEFKRLNINAAKSSFLPEEEKKELLERLYREYQ” here?
**A.** soluble

**Q.** Which “soluble on expression in E. coli” value does the source give for “MGSDKIHHHHHHMDKLDNYIVTILEKSITPRKSPFLHTILAGRRTGQAVQDAHLFQMQHLFGLVPNLKLNYLETRLKELMRQGIITVTENGYTVKQKPNFSFEMSFPSFHGFAFQQQVFAFFAHLRLAVQVVSNKHHAEKYYLPVIRDKKVQQFIKIWLQNQQQEDLADRLYIELIKWFNSLAVSRPEFLVERFSGGKLMGYTTEQIATKYQVEKWDVYFEVLHELHRLIAAIKESEEEWPLLASLIPNELMSLTSSAIKTYTLWAKGMDLEMIERIRNLKTSTIQDHFVEIRATLKEAQVPYLPEEELIQSINSRNWHLLRDIKAAFPDLDYYQIRLAVVSKEDEQ” here?
**A.** not soluble

**Q.** With “MIKVEIKPSQAQFTTRSGVSRQGKPYSLNEQLCYIDLGNEYPVLVKVTLDEGQPAYAPGLYTVHLSSFKVGQFGSLMIDRLRLVPAK” as the sequence, how does the “soluble on expression in E. coli” value read?
**A.** soluble

**Q.** With “MSLEHWNKTFCLEVKGDYACFTRPEMKVERVSYDVITPSAARGIFEAIFWKPAIRWRIRKIEVLNPIKWISVRRNEVGQTASERSDGIFIETARQQRAGLFLRDVAYRLHAELEFVPPSERPDAKRPVPESLQDGRETSELRKDENPGKYYAIFERRARKGQCFNQPYLGCREFSCEFRLVDDLANEPPPISETRNLGFMLYDLDFQKNLKEPPPAFFPACLEKGVIKVPDWESEEVRKEGHHHHHH” as the sequence, how does the “soluble on expression in E. coli” value read?
**A.** soluble

**Q.** Which “soluble on expression in E. coli” value does the source give for “MSILEKIFKTRKDITYMLDLDMIEDLSQQAYVKRLAIDSCIEFVARAVAQSHFKVLEGNRIQKNDVYYKLNIKPNTDLSSDSFWQQVIYKLIYDNEVLIVVSDSKELLIADSFYREEYALYDDIFKDVTVKDYTYQRTFTMQEVIYLKYNNNKVTHFVESLFEDYGKIFGRMIGAQLKNYQIRGILKSASSAYDEKNIEKLQAFTNKLFNTFNKNQLAIAPLIEGFDYEELSNGGKNSNMPFSELSELMRDAIKNVALMIGIPPGLIYGETADLEKNTLVFEKFCLTPLLKKIQNELNAKLITQSMYLKDTRIEIVGVNKKDPLQYAEAIDKLVSSGSFTRNEVRIMLGEEPSDNPELDEYLITKNYEKANSGENDEKEKDENTLKGGDEDESGD” here?
**A.** not soluble

**Q.** For “MGSSHHHHHHSSGLVPRGSHMESAIGEHLQCPRTLTRRVPDTYTPPFPMWVGRADDALQQVVMGYLGVQFRDEDQRPAALQAMRDIVAGFDLPDGPAHHDLTHHIDNQGYENLIVVGYWKDVSSQHRWSTSTPIASWWESEDRLSDGLGFFREIVAPRAEQFETLYAFQEDLPGVGAVMDGISGEINEHGYWGSMRERFPISQTDWMQASGELRVIAGDPAVGGRVVVRGHDNIALIRSGQDWADAEADERSLYLDEILPTLQSGMDFLRDNGPAVGCYSNRFVRNIDIDGNFLDLSYNIGHWASLDQLERWSESHPTHLRIFTTFFRVAAGLSKLRLYHEVSVFDAADQLYEYINCHPGTGMLRDAVTIAEH”, which “soluble on expression in E. coli” value is on record?
**A.** soluble

**Q.** With “MQIGAKIRQLRIANQMTQEELADRAELSKGFISQIENDLTSPSINTLVDILQCLGTDLKTFFSDSEDKQIVFREKDYFSKTDNELKNTIEWVVPNSQKNAMEPIRMTLQPGGRSLEDHPHEGEEFGYVVKGSIEVHIGNECYRVNEGESFYFESTRKHYIVNVGESDAQVIWVSTPPTF” as the sequence, how does the “soluble on expression in E. coli” value read?
**A.** not soluble

**Q.** For “VQLLESGPGVVKPSETLSLTCTVSGASVNNYYWTWVRQPPGKGLEWIGNVYDSGDTNYNPSLSSRLSLSMDTSKNQFSLRLSSVTAADTATYYCARYHRHFIRGPLSFDYWGRGTLVTVSSASTKGPSVFPLAPSSKSTSGGTSALGCLVKDYFPEPVTVSWNSGALTSGVHTFPAVLQSSGLYSLSSVVTVPSSSLGTQTYICNVNHKPSNTKVDKKVEPKSCDKTS”, which “soluble on expression in E. coli” value is on record?
**A.** soluble

**Q.** For “MVSSDVPKTQRALIFESYGGPLEIKQLPIPQPNEDELLVKMEYSGICHSDVHTWLGDFHYVSKCPMIGGHEGAGSVISVGSKVKNWQIGDKVGIKLVQGNCLNCEYCQTGHEPLCPHVWNIGVQKYGTFQEYATIRDVDAIKIPKSMNMAAAAPVLCGGVTAYKALKESEVKSGQIVAVTGAGGGLGSFAIQYARAMGMRVVAEDIVAHIREITDGGAHGVVNFAAAKVPMEKALEYVRKRGTVVFVGLAKDSKILVDTIPLIFNAVKIKGSIVGSRLDVNEAMDFVARGAVNVPLELVKLEDVAEVYTKMHDGKINSRVVVDFSL”, which “soluble on expression in E. coli” value is on record?
**A.** not soluble

**Q.** For “MSGILALGAYVPERVMTNADFEAYLDTSDEWIVTRTGIKERRVAAEDEYTSDLAFKAVEDLLRRHPGALEGVDAVIVATNTPDALFPDTAALVQARFGLKAFAYDLLAGCPGWIYALAQAHALVEAGLAQKVLAVGAEALSKIIDWNDRATAVLFGDGGGAAVVGKVREGYGFRSFVLGADGTGAKELYHACVAPRLPDGTSMKNRLYMNGREVFKFAVRVMNTATLEAIEKAGLTPEDIRLFVPHQANLRIIDAARERLGLPWERVAVNVDRYGNTSTASIPLALKEALDAGRIREGDHVLLVSFGAGLTWAAAVLTWGGA”, which “soluble on expression in E. coli” value is on record?
**A.** soluble

**Q.** With “MGSDKIHHHHHHMLPALWVAKTGLSAQDTNLTVISNNLANVSTTGFKRDRAEFADLLYQIKRQPGAQSTQDSELPSGLQVGTGVRIVGTQKSFVAGSLQTTDNPLDMAVNGRGFFQILQPDGTVSYTRDGTFHLNSDGQIVTDNGYALEPAIVVPNDAQTFTVGQDGTVSITTAGNPAAQVIGNIQTADFINPAGLQAIGDNLFLETAASGAPQVGTPGLNGFGTTLQQTLENSNVSTVEELVNMITTQRAYEMNSKVISTADQMLSFVTQQL” as the sequence, how does the “soluble on expression in E. coli” value read?
**A.** not soluble

**Q.** For “MTICSVNNVTKSFGGNIIFENISLEIKNGERVGLVGRNGSGKTTIFQLLTGMESLDAGAIHMKKGTRIGHVAQIPKFDESMTVYEVLSSAFKIEKELEREMRTLEKDMAEEQESSVLQKLMERYGIIQEKFAFLGGYEIEANIMKVANGLQVTELFPRSFLELSGGEQTKVSLAYMLLQKPDLLLLDEPTNHLDLFAVEWLEQFLKEYNGTVMVISHDRYFLDEVVTKIFDLEDGEIHVYHTNYSRFVEEKEERLLQEFQAYQEQQKKIKKMKEAIKRLREWANQANPPNEGLHKRARSMERALERMQKLKKPILERKQIGLQFEGQDRSGKDVVVIKEVSKGFADHPLFNEVNLHVRFQERAAIVGRNGTGKTTLLKLLLEEIEPDAGEIRIGSSVKIGYLSQHAYGNMKSDVLEAFREYVAVTEGEARHILAKFLFYGPAVFKKVTQLSGGEKMRLRLAQLMYQDINFLILDEPTNHLDIESREVLEEALEQYNGTILAVSHDRYFLNKLFEKTYWIDEHKLFEFAGNYAWARQKWEERLETQVIKQQRQGRKSIETAPVKKKEARNIEEIETELMHVEEDIYTLECTMEHVVDIKRLEQLYEEKTKKELLRAELYNELENIVE”, which “soluble on expression in E. coli” value is on record?
**A.** not soluble

**Q.** With “MSLEVTTPGKLFIAGEYAVVEPGHPAIIVAVDQFVTVTVEETTDEGSIQSAQYSSLPIRWTRRNGELVLDIRENPFHYVLAAIHLTEKYAQEQNKELSFYHLKVTSELDSSNGRKYGLGSSGAVTVGTVKALNIFYDLGLENEEIFKLSALAHLAVQGNGSCGDIAASCYGGWIAFSTFDHDWVNQKVATETLTDLLAMDWPELMIFPLKVPKQLRLLIGWTGSPASTSDLVDRVHQSKEEKQAAYEQFLMKSRLCVETMINGFNTGKISVIQKQITKNRQLLAELSSLTGVVIETEALKNLCDLAESYTGAAKSSGAGGGDCGIVIFRQKSGILPLMTAWEKDGITPLPLHVYTYGQKECKEKHEGHHHHHH” as the sequence, how does the “soluble on expression in E. coli” value read?
**A.** soluble

**Q.** With “MNARKAPEFPAWPQYDDAERNGLVRALEQGQWWRMGGDEVNSFEREFAAHHGAAHALAVTNGTHALELALQVMGVGPGTEVIVPAFTFISSSQAAQRLGAVTVPVDVDAATYNLDPEAVAAAVTPRTKVIMPVHMAGLMADMDALAKISADTGVPLLQDAAHAHGARWQGKRVGELDSIATFSFQNGKLMTAGEGGAVVFPDGETEKYETAFLRHSCGRPRDDRRYFHKIAGSNMRLNEFSASVLRAQLARLDEQIAVRDERWTLLSRLLGAIDGVVPQGGDVRADRNSHYMAMFRIPGLTEERRNALVDRLVEAGLPAFAAFRAIYRTDAFWELGAPDESVDAIARRCPNTDAISSDCVWLHHRVLLAGEPELHATAEIIADAVARA” as the sequence, how does the “soluble on expression in E. coli” value read?
**A.** soluble

**Q.** Which “soluble on expression in E. coli” value does the source give for “MLIRAMQKSDYEAVYKLWCEIKGFGIRSIDDSKENIENFLDRNPNLSVVAVIDEEIVGSILCGHDGRTGGFYHVCVHKDHRKKGIAHEMAKFCLEALKAQKINKIALIAFKNNDLGNEFWKHYGFTLREDANYYDLSLNEYNQTSFNA” here?
**A.** not soluble
